Experimental data reported in PMC4119988 (British Journal of Cancer, 2014).

Molecular target: OTU domain-containing protein 1 (Homo sapiens (Human)., UniProt Q5VV17)
Test: far-Western, overlay or dot blot

OTU domain-containing protein 1, sequence (Q5VV17 whole entry, the tested form may be a part): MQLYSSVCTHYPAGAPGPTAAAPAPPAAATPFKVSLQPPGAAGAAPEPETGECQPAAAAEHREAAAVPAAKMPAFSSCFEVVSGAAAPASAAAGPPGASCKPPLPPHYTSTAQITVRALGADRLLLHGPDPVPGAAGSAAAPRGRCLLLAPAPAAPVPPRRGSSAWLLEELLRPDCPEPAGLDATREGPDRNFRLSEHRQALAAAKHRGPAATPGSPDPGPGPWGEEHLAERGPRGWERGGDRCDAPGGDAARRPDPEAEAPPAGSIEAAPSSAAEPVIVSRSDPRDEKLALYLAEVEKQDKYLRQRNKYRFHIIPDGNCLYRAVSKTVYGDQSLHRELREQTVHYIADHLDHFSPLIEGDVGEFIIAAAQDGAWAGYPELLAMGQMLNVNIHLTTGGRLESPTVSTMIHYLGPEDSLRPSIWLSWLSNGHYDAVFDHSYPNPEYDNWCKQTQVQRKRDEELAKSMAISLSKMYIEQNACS

- binding result: binds
B1: scFv-C1 (scFv, V domains shown)
VH: EVQLLESGGGLVQPGGSLGLSCVASGFTFSDRWMSWVRQAPGKGLEWVAKIKQDGSEKLYVDSVKGRFTIPRDNSKNSLYLQMDSLRAEDTAVYYCVRGAGWLLDHWGQGILVTVSS
VL: SYVLTQPPSVSVAPGKTARITCGGNNIGRKSVHWYQQKPGQAPVLVVYDDSDRPSGIPERFSGSNSGNTATLTISRVEAGDEADYYCQVWDSSSDHSNWVFGGGTQLTVL
